Data on 8 molecules can be found in patent US20150272885A1 (STC UNM, published 2015).

Experiment [1] has as its target T1, recombinant human Met (rhMet), fused to the Fc domain of human IgG (human, UniProt P08581 25-932).
T1 construct: also called MET receptor; hepatocyte growth factor receptor; not shown: Fc domain of human IgG
Nature of the experiment: phage display selection on rhMet-Fc, five rounds; phage ELISA on rhMet. The protocol:
Peptides at 1×10¹¹ pfu/mL were incubated with 100 nM of recombinant human Met (rhMet), fused to the Fc domain of human IgG, for 1 hour at room temperature. […] Bound phage clones were eluted with a low-pH buffer (0.2 M glycine with 1 mg/mL BSA, pH 2.2), and elutants were amplified via infection of the host bacterium (E. coli ER2738).
1×10¹¹ pfu/mL were incubated with 100 nM of recombinant human Met (rhMet), fused to the Fc domain of human IgG, for 1 hour at room temperature. […] Bound phage clones were eluted with a low-pH buffer (0.2 M glycine with 1 mg/mL BSA, pH 2.2), and elutants were amplified via infection of the host bacterium (E. coli ER2738). […] Peptides specific for protein A and protein G were avoided by alternating rounds of selection between protein A-coated magnetic particles and protein G-coated magnetic particles. After five rounds of selection, DNA was recovered from 40 individual clones and sequenced using the −96 gIII primer provided with the Ph.D.™-7 kit.
In general terms: In an ELISA, binding on a coated surface is turned into a signal by an enzyme label.

Experiment [2] concerns the target Met (hepatocyte growth factor receptor) on Hep3B cells (human) (UniProt P08581). The experiment is described as follows: flow cytometry saturation binding on cytochalasin D-treated Hep3B cells, 1 hour at 37 C; specific binding = total minus binding with saturating unlabeled HGF; apparent Kd of the multivalent particle. For orientation: Flow cytometry measures light scatter and fluorescence of single cells or particles in a stream.

The target of experiment [3] is T2, ephrin B2 (EB2) on cells (human, UniProt P52799 28-333).
T2 construct: whole, on cells; The species is stated as human for the CHO-K1 transfectants; also called human ephrin B2
Nature of the experiment: phage display selection on CHO-K1 cells expressing human EB2, with counter-selection on parental CHO-K1 and on CHO-K1 expressing ephrin B1.

The target in experiment [4] is T2, ephrin B2 (EB2) on cells. The experiment is described as follows: flow cytometry, EB2-positive HEK 293 against EB2-negative parental CHO-K1.

No end group written: not given here.

T1 sequence (P08581 25-932 limits assumed): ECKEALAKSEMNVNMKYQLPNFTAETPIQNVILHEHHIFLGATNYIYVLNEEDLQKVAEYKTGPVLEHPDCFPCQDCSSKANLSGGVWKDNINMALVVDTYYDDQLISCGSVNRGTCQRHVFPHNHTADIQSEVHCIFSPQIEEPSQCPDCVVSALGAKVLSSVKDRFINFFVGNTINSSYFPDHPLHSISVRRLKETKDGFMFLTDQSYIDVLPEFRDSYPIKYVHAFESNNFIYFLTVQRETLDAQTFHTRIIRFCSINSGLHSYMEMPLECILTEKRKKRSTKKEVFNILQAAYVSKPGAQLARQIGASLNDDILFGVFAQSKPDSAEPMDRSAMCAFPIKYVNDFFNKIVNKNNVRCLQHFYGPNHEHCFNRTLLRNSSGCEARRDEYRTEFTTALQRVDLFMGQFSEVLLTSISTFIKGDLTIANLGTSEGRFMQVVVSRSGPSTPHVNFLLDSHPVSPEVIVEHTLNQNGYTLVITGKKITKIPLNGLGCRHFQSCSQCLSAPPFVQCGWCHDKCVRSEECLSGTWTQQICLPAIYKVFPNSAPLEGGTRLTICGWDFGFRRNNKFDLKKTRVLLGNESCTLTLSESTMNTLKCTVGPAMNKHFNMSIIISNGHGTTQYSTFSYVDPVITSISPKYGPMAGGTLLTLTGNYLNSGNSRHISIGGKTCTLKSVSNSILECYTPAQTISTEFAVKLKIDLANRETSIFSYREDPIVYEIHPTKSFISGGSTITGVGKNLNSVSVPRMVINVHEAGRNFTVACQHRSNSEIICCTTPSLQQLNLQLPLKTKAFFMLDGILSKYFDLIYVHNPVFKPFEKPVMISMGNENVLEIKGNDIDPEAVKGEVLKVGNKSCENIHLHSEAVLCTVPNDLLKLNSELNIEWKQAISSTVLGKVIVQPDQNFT
T2 sequence (P52799 28-333): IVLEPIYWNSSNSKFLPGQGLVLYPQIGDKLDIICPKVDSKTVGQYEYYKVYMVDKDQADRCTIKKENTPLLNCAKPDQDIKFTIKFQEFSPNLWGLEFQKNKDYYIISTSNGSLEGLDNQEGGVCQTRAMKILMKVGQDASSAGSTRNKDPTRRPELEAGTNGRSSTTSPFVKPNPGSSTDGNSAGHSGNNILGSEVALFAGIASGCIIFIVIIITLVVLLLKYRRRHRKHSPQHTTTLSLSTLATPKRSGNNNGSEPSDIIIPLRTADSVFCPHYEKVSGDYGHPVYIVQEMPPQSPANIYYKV
Sequence of Met (hepatocyte growth factor receptor) on Hep3B cells (human) (P08581 25-1390): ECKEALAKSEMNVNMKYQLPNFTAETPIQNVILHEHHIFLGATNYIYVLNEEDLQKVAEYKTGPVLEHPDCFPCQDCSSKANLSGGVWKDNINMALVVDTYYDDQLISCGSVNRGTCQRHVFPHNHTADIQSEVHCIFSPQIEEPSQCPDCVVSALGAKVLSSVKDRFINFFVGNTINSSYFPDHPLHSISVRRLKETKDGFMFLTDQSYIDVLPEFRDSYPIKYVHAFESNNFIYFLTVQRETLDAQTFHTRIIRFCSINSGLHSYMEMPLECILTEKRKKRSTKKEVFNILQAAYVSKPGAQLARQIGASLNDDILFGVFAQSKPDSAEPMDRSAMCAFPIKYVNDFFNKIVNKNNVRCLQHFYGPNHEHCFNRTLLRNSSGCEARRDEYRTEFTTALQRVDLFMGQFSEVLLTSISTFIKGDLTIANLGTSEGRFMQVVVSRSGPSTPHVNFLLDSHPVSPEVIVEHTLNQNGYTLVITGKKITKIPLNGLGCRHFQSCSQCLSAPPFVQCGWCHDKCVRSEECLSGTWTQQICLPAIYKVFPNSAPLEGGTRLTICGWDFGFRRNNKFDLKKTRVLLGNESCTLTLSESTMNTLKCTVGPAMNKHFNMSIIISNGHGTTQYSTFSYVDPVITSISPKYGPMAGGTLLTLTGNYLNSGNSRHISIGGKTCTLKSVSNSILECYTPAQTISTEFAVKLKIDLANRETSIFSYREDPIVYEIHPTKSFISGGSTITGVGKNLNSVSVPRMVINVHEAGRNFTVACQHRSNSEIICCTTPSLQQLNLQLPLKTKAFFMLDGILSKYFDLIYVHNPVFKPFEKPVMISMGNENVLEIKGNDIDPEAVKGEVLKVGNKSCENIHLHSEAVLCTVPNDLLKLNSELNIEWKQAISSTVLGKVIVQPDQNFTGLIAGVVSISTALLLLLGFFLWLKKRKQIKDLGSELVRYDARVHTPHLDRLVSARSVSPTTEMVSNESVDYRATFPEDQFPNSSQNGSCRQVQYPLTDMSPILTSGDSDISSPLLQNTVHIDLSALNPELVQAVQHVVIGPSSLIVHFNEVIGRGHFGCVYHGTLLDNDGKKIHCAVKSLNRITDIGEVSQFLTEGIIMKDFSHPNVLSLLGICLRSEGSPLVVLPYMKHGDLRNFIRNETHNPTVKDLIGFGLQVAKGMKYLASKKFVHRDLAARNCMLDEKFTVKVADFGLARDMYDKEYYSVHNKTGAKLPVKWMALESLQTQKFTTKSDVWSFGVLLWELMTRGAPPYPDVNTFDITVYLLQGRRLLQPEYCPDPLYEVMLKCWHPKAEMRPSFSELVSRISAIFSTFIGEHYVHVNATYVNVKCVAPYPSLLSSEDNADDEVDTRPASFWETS

B1: MC40 targeting peptide ASVHFPP (SEQ ID NO: 1) (peptide)
peptide: ASVHFPP
notes: 7-mer selected from the Ph.D.-7 phage display library; also called MC40 clone
Consider B1, for which the binding result in experiment [1] is “binds”.

B2: MC40-targeted protocells (mesoporous silica nanoparticle-supported lipid bilayer modified with 0.015 wt %, ~6 peptides/particle, of the MC40 targeting peptide) (peptide, not shown: small tags and cut ends)
peptide: ASVHFPPC
modifications: also: C-terminal Cys conjugated via sulfhydryl-to-amine crosslinker to DOPE in the protocell lipid bilayer
Take B2: the Kd in experiment [2] came out at 1.05 nM.

B3: TGAILHP peptide (SEQ ID NO: 18) (peptide)
peptide: TGAILHP
notes: 7-mer from phage display; It was selected on CHO-K1 cells expressing human ephrin B2, with counter-selection on parental CHO-K1 and on CHO-K1 expressing human ephrin B1; also called ephrin B2 targeting peptide
As for B3, in experiment [3], the binding result is on record as “binds”.

B4: MET binding peptide IPLKVHP (SEQ ID NO: 4) (peptide)
peptide: IPLKVHP
notes: 7-mer from Ph.D.-7 phage display, tested as a phage clone
For B4, in experiment [1], the binding result is recorded as “binds”.

B5: MET binding peptide TATFWFQ (SEQ ID NO: 2) (peptide)
peptide: TATFWFQ
notes: as for B4
For B5, the binding result in experiment [1] is “binds”.

B6: TGAILHP-targeted MSN-SLBs, low peptide valency (0.015 wt % or ~5 peptides/particle) (other)
peptide: TGAILHP
modifications: not fully specified
notes: Multivalent display on mesoporous silica nanoparticle-supported lipid bilayers; also called MSN-SLBs modified with 0.015 wt % of TGAILHP and 10 wt % PEG-2000
Consider B6, for which, in experiment [4], the “fold higher affinity for HEK 293 cells than for EB2-negative cells (parental CHO-K1)” value came out at 1000 fold.

B7: MET binding peptide TSPVALL (SEQ ID NO: 3) (peptide)
peptide: TSPVALL
notes: as for B4
For the molecule B7, in experiment [1], the binding result was “binds”.

B8: MET binding peptide WPRLTNM (SEQ ID NO: 5) (peptide)
peptide: WPRLTNM
notes: as for B4
Regarding B8, in experiment [1], the binding result is listed as “binds”.
